Molecular target: T1, Orai3-L2 (aa 111–161, mutation C118G) (human, UniProt Q9BRQ5 111-161, C118G, conjugated to amino-functionalized AFM cantilever tips via a flexible NHS-PEG18-acetal cross-linker)
T1 construct: human Orai3 loop2, aa 111–161; also called Orai3-loop2; source: synthetic peptide (custom-synthesized, >95% purity, Synpeptide)
Test: AFM single-molecule force spectroscopy; loop2 peptide tethered to the cantilever tip via a PEG linker, Orai1-NT peptide immobilised on silicon chips; room temperature, HBS buffer (150 mM NaCl, 5 mM Hepes); pulling velocity 50-8000 nm/s; koff from the Bell-Evans single energy barrier model
Details: both partners purified

binding result: binds
B1: Orai1-NT 70–91 (peptide)
peptide: SMQALSWRKLYLSRAKLKASSRC
modifications: added C-terminal cysteine for site-specific coupling; immobilized on silicon chips via NHS-PEG27-maleimide linkers
notes: human Orai1 N terminus, aa 70–91; added C-terminal cysteine for site-specific coupling (told in words); also called Orai1 70–91; non-truncated Orai1 NT; source: synthetic peptide (custom-synthesized, >95% purity, DgPeptides)

From PMC5787804, “Communication between N terminus and loop2 tunes Orai activation” (The Journal of Biological Chemistry, 2017)
